We go through two substances from patent US20140309404A1.

The target in one assay is BMP-10. Description: cell-based or functional assay.
The next assay concerns the target BMP-2. Description: cell-based or functional assay.
Another assay has as its target BMP-4. The assay is described as follows: cell-based or functional assay.
The next assay deals with BMP-9. Description: cell-based or functional assay.
The target of another assay is human BMP-5 (human) (UniProt P22003). Description: cell-based or functional assay.
Sequence of human BMP-5 (human) (P22003 317-454 limits assumed): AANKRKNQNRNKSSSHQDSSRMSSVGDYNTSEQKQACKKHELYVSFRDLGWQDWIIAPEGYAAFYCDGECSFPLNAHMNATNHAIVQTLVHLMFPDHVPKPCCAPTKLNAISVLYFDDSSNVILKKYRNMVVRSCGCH
Assay [1] has as its target human BMP-6 (human) (UniProt P22004). Description: cell-based or functional assay.
Assay [2] deals with human BMP-7 (human) (UniProt P18075). Description: cell-based or functional assay.
Sequence of human BMP-7 (human) (P18075 293-431 limits assumed): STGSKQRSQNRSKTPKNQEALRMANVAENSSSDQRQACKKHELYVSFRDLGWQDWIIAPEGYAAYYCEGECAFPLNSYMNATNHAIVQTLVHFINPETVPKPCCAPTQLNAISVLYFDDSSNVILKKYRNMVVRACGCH
Assay [3] concerns the target human BMP-6 (human) (UniProt P22004). Description: SPR (BIAcore), BMP-6 immobilised on CM4 chip, antibody injected, 37 C.
For assay [4], the target named is human BMP-7 (human) (UniProt P18075). Description: SPR (BIAcore), BMP-7 immobilised on CM4 chip, antibody injected, 37 C. On the technique in general: In SPR one partner is held on a chip, and binding of the other changes the refractive index at the surface.

Sequence of human BMP-6 (human) (P22004 382-513 limits assumed): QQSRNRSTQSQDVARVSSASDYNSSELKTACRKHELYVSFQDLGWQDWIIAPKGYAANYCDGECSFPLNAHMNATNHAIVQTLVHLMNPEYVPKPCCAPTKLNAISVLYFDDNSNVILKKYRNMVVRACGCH

By Kd is commonly meant a measure of binding affinity in units of concentration. Read a high Kd as weaker binding. As a reminder, the koff is the first-order rate constant of dissociation. Read a low koff as slow dissociation. The term kon denotes the rate constant with which the complex forms. Read a high kon as fast association. Turning to MAB507 (antibody), the Mean % Inh at 1000 nM, BMP-10 induced Hep Luc Assay in the assay with BMP-10 was -87.2%. Besides, the Mean % Inh at 1000 nM, BMP-2 induced Hep Luc Assay in the assay with BMP-2 is -50.6%. Also, the Mean % Inh at 1000 nM, BMP-4 induced Hep Luc Assay with BMP-4 is -65.4%. Moreover, the Mean % Inh at 1000 nM, BMP-9 induced Hep Luc Assay with BMP-9 is -76.1%. In addition, the Mean % Inh at 1000 nM, BMP-5 induced Hep Luc Assay in the assay with human BMP-5 (human) was -43.5%. Also, the Geometric Mean IC50 (nM), BMP-6 induced Hep Luc Assay (hepcidin promoter luciferase, HepProm Luc cells) with human BMP-6 (human) [1] stood at 22.1 nM. Moreover, the Mean % Inh at 1000 nM, BMP-7 induced Hep Luc Assay with human BMP-7 (human) [2] was 54.2%. In the assay with human BMP-6 (human) [3], this substance returned a Kd of 1 nM, a koff of 0.000187 s⁻¹ and an on-rate (kon) of 187000 M⁻¹ s⁻¹. In the assay with human BMP-7 (human) [4], the Kd was 23.2 nM, the koff worked out at 0.000793 s⁻¹ and the kon is 34200 M⁻¹ s⁻¹.
In the case of human IgGPAA4 control (antibody), in the assay with BMP-10, the Mean % Inh at 1000 nM, BMP-10 induced Hep Luc Assay worked out at 5.4%. Further, in the assay with BMP-2, the Mean % Inh at 1000 nM, BMP-2 induced Hep Luc Assay worked out at 7.8%. Moreover, in the assay with BMP-4, the Mean % Inh at 1000 nM, BMP-4 induced Hep Luc Assay was 4.2%. Further, the Mean % Inh at 1000 nM, BMP-9 induced Hep Luc Assay with BMP-9 amounted to 2.8%. In addition, the Mean % Inh at 1000 nM, BMP-5 induced Hep Luc Assay with human BMP-5 (human) came out at 2.5%. Moreover, in the assay with human BMP-7 (human) [2], the Mean % Inh at 1000 nM, BMP-7 induced Hep Luc Assay is -1.7%.
